Here are results for one molecule from patent publication US20260015417A1 (MEDIMABBIO, published 2026).

By EC50 (read off the curve) is commonly meant the concentration needed to bring the measured effect to its halfway point.

The target in this assay is T1, recombinant human TIGIT protein (Acrobiosystems) (human, UniProt Q495A1 22-141).
T1 construct: Bought recombinant protein; NP_776160.2; UniProt Q495A1-1
T1 sequence: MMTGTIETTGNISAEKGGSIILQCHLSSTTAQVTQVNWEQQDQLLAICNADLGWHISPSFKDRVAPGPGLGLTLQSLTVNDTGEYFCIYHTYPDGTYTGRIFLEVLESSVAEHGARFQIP
The assay is described as follows: ELISA, plate coated with recombinant human TIGIT at 1 ug/ml, serial 1:3 dilutions from 61.097 nM, detection with anti-mouse/human IgG-HRP, OD 450 nm. How it is done: An ELISA plate was coated with recombinant human TIGIT protein (Acrobiosystems, China) at a concentration of 1 μg/ml dissolved in PBS (Phosphate-Buffered Saline) and incubated overnight at 4° C. The plate was blocked with blocking buffer (3% (v/v) skim milk in PBS) for 1 hour, and serially diluted anti-TIGIT monoclonal antibody (7A6) and the fusion protein ([7A6]-[TL-2]-[IL-15]; denoted as ‘7A615TL-2’) (starting concentration: 61.097 nM; serial 1:3 dilutions) were added to the coated plate. After incubation, anti-mouse/human IgG-HRP antibody (Abcam: 1:10000 dilution) was added to each well. The plate was developed with TMB solution and stopped with 1N HCl. The OD value was read at 450 nm using the GloMax® Explorer Fully Loaded.

B1: anti-TIGIT monoclonal antibody 7A6 (7A6_VH3/Vk5) (antibody, human IgG1, kappa, V domains shown)
VH: QVQLQESGPGLVKPSQTLSLTCTVTGYSITSDYAWNWIRQPPGKGLEWMGYISYSGSARYNPSLKSRVTISRDTSKNQFSLKLSSVTAEDTATYYCARKGYPAYFAYWGQGTLVTVSS
VL: DIQMTQSPSSLSASVGDRVSITCKASQDVSTAVAWYQQKPGQAPRLLIYSASYRYTGVPDRFSGSGSGTDFTLTISSLQPEDFATYYCQHHYSTPYTFGQGTKLEIKR
notes: also called parent antibody; TIGIT mAb
B1: the “EC50 (read off the curve)” value is around 2 nM.
